± gives the uncertainty stated by the source.
Assay: self-splicing fitness, log relative to wild type (ln ratio); higher = more splicing; Tetrahymena group I intron in knt gene, E. coli kanamycin selection, DiMSum; sequences stand for … in CUCUCU…GGAGGGAAAAGUUAUCAGGCAUGCACCUGGUAGCUAGUCUUUAAACCAAUAGAUUGCAUCGGUUUAAAAGGCAAGACCGUCAAAUUGCGGGAAAGGGGUCAACAGCCGUUCAGUACCAAGUCUCAGGGGAAACUUUGAGAUGGCCUUGCAAAGGGUAUGGUAAUAAGCUGACGGACAUGGUCCUAACCACGCAGCCAAGUCCUAAGUCAACAGAUCUUCUGUUGAUAUGGAUGCAGUUCACAGACUAAAUGUCGGUCGGGGAAGAUGUAUUCUUCUCAUAAGAUAUAGUCGGACCUCUCCUUAAUGGGAGCUAGCGGAUGAAGUGAUGCAACACUGGAGCCGCUGGGAACUAAUUUGUAUGCGAAAGUAUAUUGAUUAGUUUUGGAGUACUCGUGGUCG
In short: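 Fitness was computed with DiMSum as the error-weighted combination of replicate fold changes, kanamycin versus none, each normalised to wild type. The library randomised all eight intron nucleotides of the P1ex region, with the intron placed in the knt kanamycin-resistance gene on pET-22b(+) in E. coli BL21(DE3). Six replicate transformations were grown overnight at 37°C or 30°C on LB agar with or without 25 μg/mL kanamycin, plus 100 μg/mL carbenicillin, 50 μM IPTG and 0.2% rhamnose. Pooled colonies were amplicon-sequenced on an Illumina HiSeq 2500.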

| Sequence | self-splicing fitness (ln) (30 °C) | self-splicing fitness (ln) (37 °C) |
| --- | --- | --- |
| CGUCAGCAAUAUUACGGGUG | -1.9 ± 0.091 | -0.977 ± 0.11 |
| UACCAGCAAUAUUACGCUAG | -1.76 ± 0.074 | -1.03 ± 0.083 |
| AACUAGCAAUAUUACGGUUU | -3.29 ± 0.12 | -2.62 ± 0.17 |
| ACGCAGCAAUAUUACGACCA | -1.49 ± 0.12 | -0.691 ± 0.15 |
| ACGCAGCAAUAUUACGCGAA | -2.4 ± 0.15 | -1.2 ± 0.13 |
| UAGGAGCAAUAUUACGGCAG | -3.1 ± 0.37 | -0.425 ± 0.25 |
| UUCAAGCAAUAUUACGAAUU | -3.21 ± 0.24 | -1.69 ± 0.27 |
| CAAAAGCAAUAUUACGCCGU | -2.08 ± 0.16 | -1.32 ± 0.18 |
| ACGUAGCAAUAUUACGAUUU | 0.256 ± 0.059 | -0.149 ± 0.073 |
| AUGUAGCAAUAUUACGCUUA | -0.903 ± 0.14 | -0.145 ± 0.16 |
| GUCCAGCAAUAUUACGAAGC | -0.345 ± 0.072 | -0.167 ± 0.085 |
| CCUUAGCAAUAUUACGUGUU | -4.69 ± 0.32 | -3.25 ± 0.21 |
| CUGUAGCAAUAUUACGCCGU |  | -2.96 ± 0.4 |
| CAAUAGCAAUAUUACGGGUC | -3.28 ± 0.34 | -2.4 ± 0.48 |
| GUUCAGCAAUAUUACGCGAC | -3.9 ± 0.29 | -1.22 ± 0.29 |
| CCAUAGCAAUAUUACGUCAC | -3.48 ± 0.28 |  |
| CAUUAGCAAUAUUACGGCUG | 0.0732 ± 0.078 | 0.0962 ± 0.088 |
| GACAAGCAAUAUUACGGCGA | -0.213 ± 0.074 | 0.21 ± 0.085 |
| AACUAGCAAUAUUACGGCCG | -0.725 ± 0.1 | 0.273 ± 0.13 |
| CCAAAGCAAUAUUACGGUCU | -3.75 ± 0.16 | -3.15 ± 0.19 |
| ACGUAGCAAUAUUACGCAGC | -3.26 ± 0.26 | -2.71 ± 0.25 |
| CAGAAGCAAUAUUACGACGU | -1.53 ± 0.12 | -0.618 ± 0.12 |
| GCUAAGCAAUAUUACGUAAG | -0.616 ± 0.11 | 0.0143 ± 0.15 |
| CCGGAGCAAUAUUACGUUGG | -3.57 ± 0.24 | -2.47 ± 0.26 |
| ACCGAGCAAUAUUACGGAUU | -3.51 ± 0.16 | -1.94 ± 0.16 |

| Sequence | self-splicing fitness (ln) (30 °C) | self-splicing fitness (ln) (37 °C) |
| --- | --- | --- |
| CCUUAGCAAUAUUACGGAAU | -3.53 ± 0.2 | -3.15 ± 0.3 |
| GGAAAGCAAUAUUACGUGAA | -1.96 ± 0.11 | -1.45 ± 0.16 |
| AGUGAGCAAUAUUACGCUGG |  | -2.84 ± 0.41 |
| AUCUAGCAAUAUUACGGGCG | -0.656 ± 0.1 | -0.967 ± 0.11 |
| UUGCAGCAAUAUUACGAUCA | -1.37 ± 0.12 | -0.0311 ± 0.11 |
| AAGAAGCAAUAUUACGCGAC | -3.25 ± 0.24 | -1.53 ± 0.13 |
| CGUGAGCAAUAUUACGUGCG | -3.21 ± 0.24 | -2.6 ± 0.32 |
| GACGAGCAAUAUUACGGUAG | -4.01 ± 0.36 | -2.18 ± 0.22 |
| AGCAAGCAAUAUUACGUAAC | -5.08 ± 0.25 | -2.09 ± 0.14 |
| CCUGAGCAAUAUUACGUCAA | -2.73 ± 0.22 | -2.36 ± 0.3 |
| UAAGAGCAAUAUUACGAGGG | -3.64 ± 0.14 | -2.53 ± 0.16 |
| UCCUAGCAAUAUUACGUGGG | -3.24 ± 0.15 | -2.5 ± 0.2 |
| UGCAAGCAAUAUUACGGUCU | -0.647 ± 0.07 | 0.283 ± 0.082 |
| UCGUAGCAAUAUUACGUAGC | -2.27 ± 0.43 |  |
| UAAGAGCAAUAUUACGACAU | -3.866 ± 0.031 | -2.82 ± 0.043 |
| AACUAGCAAUAUUACGUCUU | 0.0966 ± 0.067 | 0.781 ± 0.083 |
| UGACAGCAAUAUUACGCCUA | 0.107 ± 0.069 | 0.414 ± 0.086 |
| CGUGAGCAAUAUUACGUUCC | -3.37 ± 0.31 |  |
| CUUGAGCAAUAUUACGCCAC | -2.82 ± 0.49 |  |
| CCAGAGCAAUAUUACGUAUA |  | -2.35 ± 0.29 |
| GUGGAGCAAUAUUACGGCGU | -1.29 ± 0.26 | -0.557 ± 0.48 |
| GGGCAGCAAUAUUACGUUUU | -0.77 ± 0.046 | 0.221 ± 0.063 |
| GUGGAGCAAUAUUACGCAUG | -3.81 ± 0.21 | -1.8 ± 0.15 |
| CCUCAGCAAUAUUACGCUAC | -1.66 ± 0.33 |  |
| UGGAAGCAAUAUUACGCCCG | -0.383 ± 0.22 | 0.191 ± 0.27 |

| Sequence | self-splicing fitness (ln) (30 °C) | self-splicing fitness (ln) (37 °C) |
| --- | --- | --- |
| GUGCAGCAAUAUUACGACCC | -0.76 ± 0.13 | 0.132 ± 0.18 |
| GACUAGCAAUAUUACGAGGA | -2.29 ± 0.17 | -1.43 ± 0.14 |
| CCCUAGCAAUAUUACGGGUG | -2.51 ± 0.11 | -0.894 ± 0.089 |
| UAGGAGCAAUAUUACGCGUC | -2.98 ± 0.28 | -2.22 ± 0.29 |
| CGCUAGCAAUAUUACGGAAU | -3.52 ± 0.28 | -2.02 ± 0.26 |
| CCCUAGCAAUAUUACGCGCU |  | -1.78 ± 0.47 |
| UACGAGCAAUAUUACGUUGU | -3.36 ± 0.16 | -2.68 ± 0.18 |
| UAAUAGCAAUAUUACGGCCA | -0.34 ± 0.17 | 0.175 ± 0.18 |
| CUGCAGCAAUAUUACGCCCU | -3.15 ± 0.37 | -1.71 ± 0.33 |
| GUUGAGCAAUAUUACGACAC | -0.129 ± 0.18 | -0.362 ± 0.19 |
| UACUAGCAAUAUUACGAAUC | -2.81 ± 0.18 | -3.38 ± 0.35 |
| UAAUAGCAAUAUUACGCCGA | -1.01 ± 0.29 | -1.51 ± 0.44 |
| GGCAAGCAAUAUUACGAUGU | -2.19 ± 0.12 | -1.44 ± 0.13 |
| UGGUAGCAAUAUUACGAGGG |  | -3.44 ± 0.33 |
| UCUAAGCAAUAUUACGAGGU | -2.8 ± 0.27 | -0.819 ± 0.17 |
| CAAAAGCAAUAUUACGUAGU | -3.12 ± 0.12 | -2.76 ± 0.18 |
| AACAAGCAAUAUUACGCCUG | -0.373 ± 0.094 | -0.0232 ± 0.095 |
| GGAUAGCAAUAUUACGAAGA | -2.93 ± 0.34 | -1.82 ± 0.31 |
| UGUAAGCAAUAUUACGAGGG | -3.68 ± 0.27 | -2.14 ± 0.3 |
| UGGCAGCAAUAUUACGUCUA | -0.425 ± 0.091 | 0.66 ± 0.11 |
| UGACAGCAAUAUUACGCACA | 0.341 ± 0.092 | 0.528 ± 0.12 |
| ACUGAGCAAUAUUACGAAUU | -2.97 ± 0.29 | -2.1 ± 0.24 |
| AGUCAGCAAUAUUACGCGCA | -0.326 ± 0.11 | 0.452 ± 0.17 |
| UAAGAGCAAUAUUACGAAGG | -4.21 ± 0.34 | -1.81 ± 0.2 |
| CGUCAGCAAUAUUACGUUCG | -1.45 ± 0.068 | -0.148 ± 0.096 |

| Sequence | self-splicing fitness (ln) (30 °C) | self-splicing fitness (ln) (37 °C) |
| --- | --- | --- |
| UUCUAGCAAUAUUACGCAUG | -3.42 ± 0.16 | -2.01 ± 0.18 |
| GCUUAGCAAUAUUACGGAAC | -0.644 ± 0.15 | -0.955 ± 0.14 |
| ACUGAGCAAUAUUACGUCGU | -2.87 ± 0.16 | -1.96 ± 0.14 |
| UCUUAGCAAUAUUACGGAGU | -3.29 ± 0.13 | -2.28 ± 0.11 |
| ACUAAGCAAUAUUACGGGCG | -0.856 ± 0.091 | -0.529 ± 0.1 |
| ACCAAGCAAUAUUACGCUUG | -2.72 ± 0.21 | -3.79 ± 0.36 |
| UCGAAGCAAUAUUACGAUGU | -1.82 ± 0.067 | -0.546 ± 0.085 |
| ACCGAGCAAUAUUACGUCUG | -2.37 ± 0.095 | -2.28 ± 0.14 |
| GAUAAGCAAUAUUACGAAUU | -3.63 ± 0.26 | -2.76 ± 0.25 |
| AACGAGCAAUAUUACGGUAG | -3.73 ± 0.15 | -3.17 ± 0.18 |
| CUCCAGCAAUAUUACGGUCA | -2.86 ± 0.13 | -1.82 ± 0.13 |
| UUCUAGCAAUAUUACGUAGG | -2.25 ± 0.24 | -0.645 ± 0.31 |
| CUACAGCAAUAUUACGAGCA | -2.77 ± 0.16 | -2.56 ± 0.23 |
| UGCUAGCAAUAUUACGGUCG | 0.0903 ± 0.098 | 0.362 ± 0.14 |
| UUACAGCAAUAUUACGGCGG | -0.579 ± 0.087 | 0.426 ± 0.13 |
| UGAAAGCAAUAUUACGAAUG | -0.602 ± 0.066 | -0.0842 ± 0.078 |
| UGGUAGCAAUAUUACGUACG | -1.02 ± 0.19 | -0.203 ± 0.23 |
| UAUGAGCAAUAUUACGACCA | -2.25 ± 0.16 | -2.07 ± 0.18 |
| GCUUAGCAAUAUUACGAACG | -0.817 ± 0.099 | 0.062 ± 0.14 |
| CAGAAGCAAUAUUACGGAAU | -3.93 ± 0.2 | -1.94 ± 0.18 |
| CUUUAGCAAUAUUACGGGGA | -2.88 ± 0.19 | -1.38 ± 0.17 |
| CGUGAGCAAUAUUACGUGCC |  | -1.78 ± 0.39 |
| CUUUAGCAAUAUUACGCCCA | -2.92 ± 0.48 | -1.54 ± 0.38 |

— the supplement of paper PMC7877785
